{"source": "paper doi:10.1101/2024.10.10.617623", "about": "“Deep mutational scanning identifies variants of Cas1 and Cas2 that increase spacer acquisition in type II-A CRISPR-Cas systems” (bioRxiv, 2024)", "key": {"[1]": {"target": "T1, Streptococcus pyogenes type II-A Cas1 (wild type) (Streptococcus pyogenes, UniProt Q99ZW1 1-289)", "T1 construct": "Cas1 of the Streptococcus pyogenes (SF370) type II-A CRISPR-Cas system; I surmise that one is the wild type; also called wt; source: E. coli Rosetta 2(DE3) BL21, purified (Ni-NTA, SUMO protease, HiTrap Heparin, Superdex 200)", "T1 sequence (looked up)": "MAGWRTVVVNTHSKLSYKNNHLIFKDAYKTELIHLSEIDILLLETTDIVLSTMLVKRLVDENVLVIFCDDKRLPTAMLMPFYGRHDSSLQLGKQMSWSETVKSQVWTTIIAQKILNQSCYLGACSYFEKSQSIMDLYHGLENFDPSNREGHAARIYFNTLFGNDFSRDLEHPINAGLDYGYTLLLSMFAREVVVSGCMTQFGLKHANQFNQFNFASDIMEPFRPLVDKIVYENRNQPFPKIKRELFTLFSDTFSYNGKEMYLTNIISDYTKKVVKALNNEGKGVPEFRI", "test": "SEC; analytical SEC on Superdex 200 Increase 10/300 GL in SEC buffer (20 mM HEPES pH 7.5, 500 mM NaCl, 5% v/v glycerol, 5 mM DTT) at 4 °C; Cas1 variant 15.0 uM (2 equiv.) mixed with Cas2 7.5 uM, incubated 1 h at 4 °C before injection; fractions on SDS-PAGE, Coomassie", "conditions": "both partners purified"}, "[2]": {"target": "T2, Streptococcus pyogenes type II-A Cas1 R5A (Streptococcus pyogenes, UniProt Q99ZW1 1-289, R5A)", "T2 construct": "Cas1 of the Streptococcus pyogenes (SF370) type II-A CRISPR-Cas system with R5A; source: E. coli Rosetta 2(DE3) BL21, purified (Ni-NTA, SUMO protease, HiTrap Heparin, Superdex 200)", "T2 sequence (looked up)": "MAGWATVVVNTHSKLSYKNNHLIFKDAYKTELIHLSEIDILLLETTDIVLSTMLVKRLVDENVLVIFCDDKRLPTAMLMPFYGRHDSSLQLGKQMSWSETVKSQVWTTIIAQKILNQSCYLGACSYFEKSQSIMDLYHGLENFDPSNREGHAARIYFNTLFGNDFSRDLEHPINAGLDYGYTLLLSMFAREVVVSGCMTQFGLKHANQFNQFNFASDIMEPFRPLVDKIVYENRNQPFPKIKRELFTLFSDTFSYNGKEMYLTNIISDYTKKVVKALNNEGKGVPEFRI", "test": "SEC; analytical SEC on Superdex 200 Increase 10/300 GL in SEC buffer (20 mM HEPES pH 7.5, 500 mM NaCl, 5% v/v glycerol, 5 mM DTT) at 4 °C; Cas1 variant 15.0 uM (2 equiv.) mixed with Cas2 7.5 uM, incubated 1 h at 4 °C before injection; fractions on SDS-PAGE, Coomassie", "conditions": "both partners purified"}}, "data": [{"binder": "Streptococcus pyogenes type II-A Cas2 (natural protein, UniProt Q99ZW0 1-113, looked up, Cas2 of the Streptococcus pyogenes (SF370) type II-A CRISPR-Cas system; source: E. coli Rosetta 2(DE3) BL21, purified (Ni-NTA, SUMO protease, HiTrap Heparin, Superdex 200)) MSYRYMRMILMFDMPTDTAEERKAYRKFRKFLLSEGFIMHQFSIYSKLLLNNTANNAMIGRLREHNPNKGNITLLTVTEKQFARMIYLHGERNNCIANSDERLVFLGEAFDES", "values": [{"measurement": "binding result", "setting": "[1]", "value": "binds"}, {"measurement": "binding result", "setting": "[2]", "value": "binds"}]}]}
